Tested on: H1650 cells
Assay: PD-L1 immunocytochemistry (ICC), IFNγ modulation
Type: cell-based
Settings: H1650 (NSCLC); 10 ng/mL human IFNγ, 24h; anti-PD-L1 clone E1L3N
Procedure: The human NSCLC cell line SKMES1 was grown in Eagle's Minimum Essential Medium (EMEM; ATCC #30-2003) with 10% Fetal Bovine Serum (FBS) and 1% Penicillin and Streptomycin (P/S). The human NSCLC H460, H1299 and H292 and melanoma cell lines MeWo, HMVII, A375 and CHL1 were grown in RPMI1640 medium with 10% FBS and 1% P/S and 1% sodium pyruvate. Cultured cells were harvested using Accutase, and the cell count and viability were determined using trypan blue dye exclusion. Other methods to collect cells, including scraping or other release can be used.
Between 15,000 to 20,000 cells were put into each chamber of 8-chambered ICC slides in 200 uL medium with or without 10 ng/mL human IFNγ. […] IFNγ can be readily replaced by other modulators discussed within. […] Cell lines can be readily switched for other sources of cells, including those isolated from xenografts or clinical samples and can be processed manually or using automated methods (e.g. on SnapPath).
Cells on the chambered slides were stained entirely at RT using the BioGenex RTU Detection System kit components (QD400) unless otherwise indicated. Other detection reagents and methods (e.g. multiplex immunocytochemistry, single of multiplex immunofluorescence, confocal, etc.), including automated staining methods, can be used readily. […] Ki67, T-EGFR or vimentin are provided as examples of positive controls, but others can be readily used. […]

B1: IFNγ: human IFNγ, modulator (10 ng/ml; Sigma Aldrich) (protein, UniProt P01579 24-161, looked up)
Interferon gamma: QDPYVKEAENLKKYFNAGHSDVADNGTLFLGILKNWKEESDRKIMQSQIVSFYFKLFKNFKDDQSIQKSVETIKEDMNVKFFNSNKKKRDDFEKLTNYSVTDLNVQRKAIHELIQVMAELSPAAKTGKRKRSQMLFRG
Immunocytochemical Score, PD-L1, IFNγ-Treated Cells: Negative
